From US20210163604A1 (MITSUBISHI TANABE PHARMA, published 2021)
Where a chain is given by its changes, count along the chain named.

B1: F6AP8E2 mouse monoclonal anti-cMET antibody (antibody, V domains shown)
VH: EVQLQQSGAELVRPGALVKLSCKASGFNINDYFMHWVKQRPEQGLEWIGWIDPENGNTIYDPKFQGKASITADTSSNTAYLQLSSLTSEDTAVYYCARGGNYLRESYYYAMDYWGQGTSVTVSS
VL: DIVMTQSPKSMSMSVGERVTLSCKASENVGTYVSWYQQKPDQSPKLLIYGASNRYTGVPDRFTGSGSATDFTLTISSVQAEDLADYHCGQSYSYPLTFGAGTKLELKR
notes: Mouse hybridoma antibody
B2: F6B1P3D12 mouse monoclonal anti-cMET antibody (antibody, V domains shown)
VH: QVQLQQSGAELAKPGASVKMSCRASGYTFTSYWMHWVKQRPGQGLDWIGYIKPSTDNTEYNQKFKDKATLTADKSSSTAYMQLSSLTSEDSAVYYCARSYGNYPLMDYWGQGTSVTVSS
VL: QIVLTQSPAIMSASPGEKVTLTCSASSSVTSNYLYWYQQKPGSSPKLWIYSTSNLASGVPARFSGSGSGTSYSLTISSMEAEDAASYFCHQWSSYPPTFGSGTKLEIKR
notes: Mouse hybridoma antibody
B3: F6BP2D4 mouse monoclonal anti-cMET antibody (antibody, V domains shown)
VH: B2 VH with R23K, D46E, K52N, N57Y, T58I, D73G, Y103F
VL: B2 VL with T30S, A61V
notes: Mouse hybridoma antibody
B4: humanized P3D12 antibody, HC SEQ ID NO: 108 (P3D12 VH-cdr) / LC SEQ ID NO: 47 (P3D12 VL-fra) (antibody, V domains shown)
VH: QVQLVQSGAEVKKPGASVKVSCKASGYTFTSYWMHWVKQAPGQGLDWIGYIKPSTDNTEYNQKFKDKATLTADKSTSTAYMELSSLRSEDTAVYYCARSYGNYPLMDYWGQGTTVTVSS
VL: B2 VL with M11L, A13L, K18R, V19A, T22S, W48L, S73T, M79L
B5: hD12-II (antibody hD12 attached to the payload of chemical formula II, stochastic conjugation) (antibody, human IgG2, kappa, V domains shown)
VH: B4 VH
VL: B2 VL with M11L, A13L, K18R, V19A, T22S, W48L, S73T, M79L
modifications: payload possibly on cysteines (random positions); payload of chemical formula II (pyrrolobenzodiazepine toxin and linking group) linked through maleimide to cysteine thiols at random positions
notes: also called hD12-vc-II
B6: F6B1P1E2 mouse monoclonal anti-cMET antibody (antibody, V domains shown)
VH: B2 VH with R23K, D46E, K52N, N57Y, S77T, A97V
VL: B2 VL with T30S, Q38H, A61V
notes: Mouse hybridoma antibody
B7: hD12-IV (antibody hD12 attached to the payload of chemical formula IV, stochastic conjugation) (antibody, human IgG2, kappa, V domains shown)
VH: B4 VH
VL: B2 VL with M11L, A13L, K18R, V19A, T22S, W48L, S73T, M79L
modifications: payload possibly on cysteines (random positions); payload of chemical formula IV linked through maleimide to cysteine thiols at random positions
notes: Antibody-drug conjugate; also called hD12-vc-IV
B8: hD12-VII (antibody hD12 attached to the payload of chemical formula VII, stochastic conjugation) (antibody, human IgG2, kappa, V domains shown)
VH: B4 VH
VL: B2 VL with M11L, A13L, K18R, V19A, T22S, W48L, S73T, M79L
modifications: payload possibly on cysteines (random positions); payload of chemical formula VII linked through maleimide to cysteine thiols at random positions
notes: Antibody-drug conjugate; also called hD12-vc-VII
B9: hD12-XI (antibody hD12 attached to the payload of chemical formula XI, stochastic conjugation) (antibody, human IgG2, kappa, V domains shown)
VH: B4 VH
VL: B2 VL with M11L, A13L, K18R, V19A, T22S, W48L, S73T, M79L
modifications: payload possibly on cysteines (random positions); payload of chemical formula XI linked through maleimide to cysteine thiols at random positions
notes: Antibody-drug conjugate; also called hD12-vc-XI
B10: humanized P3D12 antibody, HC SEQ ID NO: 105 (P3D12 VH-fra) / LC SEQ ID NO: 46 (P3D12 VL-ven) (antibody, V domains shown)
VH: B4 VH with V5Q, A40R, K67R, A68V, E82Q, S85N, R87I, T114S
VL: B2 VL with I10T, K18R, T22S, K46R, S73T, S78R, A81P
B11: hD12-VI (antibody hD12 attached to the payload of chemical formula VI, stochastic conjugation) (antibody, human IgG2, kappa, V domains shown)
VH: B4 VH
VL: B2 VL with M11L, A13L, K18R, V19A, T22S, W48L, S73T, M79L
modifications: payload possibly on cysteines (random positions); payload of chemical formula VI linked through maleimide to cysteine thiols at random positions
notes: Antibody-drug conjugate; also called hD12-vc-VI
B12: humanized P3D12 antibody, HC SEQ ID NO: 107 (P3D12 VH-abb/sdr) / LC SEQ ID NO: 47 (P3D12 VL-fra) (antibody, V domains shown)
VH: B4 VH with I48M, N61A, K65Q, D66G, K67R, A68V
VL: B2 VL with M11L, A13L, K18R, V19A, T22S, W48L, S73T, M79L
B13: humanized P3D12 antibody, HC SEQ ID NO: 108 (P3D12 VH-cdr) / LC SEQ ID NO: 48 (P3D12 VL-abb/sdr) (antibody, V domains shown)
VH: B4 VH
VL: QIVLTQSPATLSLSPGERATLSCRASQSVTSNYLYWYQQKPGSSPRLLIYSTSNLASGVPARFSGSGSGTDYTLTISRLEPEDFASYFCHQWSSYPPTFGSGTKLEIKR
B14: humanized P3D12 antibody, HC SEQ ID NO: 105 (P3D12 VH-fra) / LC SEQ ID NO: 47 (P3D12 VL-fra) (antibody, V domains shown)
VH: B4 VH with V5Q, A40R, K67R, A68V, E82Q, S85N, R87I, T114S
VL: B2 VL with M11L, A13L, K18R, V19A, T22S, W48L, S73T, M79L
B15: humanized P3D12 antibody, HC SEQ ID NO: 108 (P3D12 VH-cdr) / LC SEQ ID NO: 49 (P3D12 VL-cdr) (antibody, V domains shown)
VH: B4 VH
VL: B13 VL with R24S, Q27S, D71S
B16: humanized P3D12 antibody, HC SEQ ID NO: 105 (P3D12 VH-fra) / LC SEQ ID NO: 48 (P3D12 VL-abb/sdr) (antibody, V domains shown)
VH: B4 VH with V5Q, A40R, K67R, A68V, E82Q, S85N, R87I, T114S
VL: B13 VL
B17: humanized P3D12 antibody, HC SEQ ID NO: 105 (P3D12 VH-fra) / LC SEQ ID NO: 49 (P3D12 VL-cdr) (antibody, V domains shown)
VH: B4 VH with V5Q, A40R, K67R, A68V, E82Q, S85N, R87I, T114S
VL: B13 VL with R24S, Q27S, D71S
B18: humanized P3D12 antibody, HC SEQ ID NO: 108 (P3D12 VH-cdr) / LC SEQ ID NO: 46 (P3D12 VL-ven) (antibody, V domains shown)
VH: B4 VH
VL: B2 VL with I10T, K18R, T22S, K46R, S73T, S78R, A81P

How the values were obtained:
human cMET [1] = target: T1, human cMET (human, UniProt P08581 25-932, limits assumed); assay: SPR (Met Binding KD)
T1 construct: also called hMET; HGFR
T1 sequence (P08581 25-932 limits assumed): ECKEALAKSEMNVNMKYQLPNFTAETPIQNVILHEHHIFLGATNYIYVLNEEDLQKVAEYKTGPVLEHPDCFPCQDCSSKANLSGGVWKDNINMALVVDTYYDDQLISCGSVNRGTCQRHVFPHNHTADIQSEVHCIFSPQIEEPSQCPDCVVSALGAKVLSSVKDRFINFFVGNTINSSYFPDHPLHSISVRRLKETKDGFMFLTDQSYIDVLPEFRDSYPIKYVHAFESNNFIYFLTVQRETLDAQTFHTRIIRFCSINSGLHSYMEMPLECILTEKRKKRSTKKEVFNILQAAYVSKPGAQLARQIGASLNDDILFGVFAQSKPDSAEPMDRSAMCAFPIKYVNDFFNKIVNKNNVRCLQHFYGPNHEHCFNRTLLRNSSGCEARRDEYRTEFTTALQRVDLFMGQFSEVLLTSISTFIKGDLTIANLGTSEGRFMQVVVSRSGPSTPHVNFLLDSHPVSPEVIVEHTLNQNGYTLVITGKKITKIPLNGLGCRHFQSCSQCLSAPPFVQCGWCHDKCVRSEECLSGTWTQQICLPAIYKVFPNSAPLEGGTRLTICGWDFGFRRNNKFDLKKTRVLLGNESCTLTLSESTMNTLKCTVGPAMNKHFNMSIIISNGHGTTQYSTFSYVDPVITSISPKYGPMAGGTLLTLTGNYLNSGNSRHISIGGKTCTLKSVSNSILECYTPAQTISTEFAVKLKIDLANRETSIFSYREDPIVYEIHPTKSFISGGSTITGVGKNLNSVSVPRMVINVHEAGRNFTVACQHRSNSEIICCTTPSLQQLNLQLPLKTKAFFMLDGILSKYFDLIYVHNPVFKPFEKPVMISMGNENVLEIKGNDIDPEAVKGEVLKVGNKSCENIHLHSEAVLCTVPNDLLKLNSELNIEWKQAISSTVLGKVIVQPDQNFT

[2] = target: T2, monkey cMET (Macaca fascicularis, Cynomolgus Macaque) (Cynomolgus Macaque (Macaca fascicularis), UniProt A0A2K5UM36 25-932); assay: ELISA, species cross-reactivity, antibody titrated on cynomolgus cMET; x axis printed -8 to 2 with ug/mL (log10)
T2 construct: also called Cyno cMET; NHP
T2 sequence (A0A2K5UM36 entry or part of it limits assumed): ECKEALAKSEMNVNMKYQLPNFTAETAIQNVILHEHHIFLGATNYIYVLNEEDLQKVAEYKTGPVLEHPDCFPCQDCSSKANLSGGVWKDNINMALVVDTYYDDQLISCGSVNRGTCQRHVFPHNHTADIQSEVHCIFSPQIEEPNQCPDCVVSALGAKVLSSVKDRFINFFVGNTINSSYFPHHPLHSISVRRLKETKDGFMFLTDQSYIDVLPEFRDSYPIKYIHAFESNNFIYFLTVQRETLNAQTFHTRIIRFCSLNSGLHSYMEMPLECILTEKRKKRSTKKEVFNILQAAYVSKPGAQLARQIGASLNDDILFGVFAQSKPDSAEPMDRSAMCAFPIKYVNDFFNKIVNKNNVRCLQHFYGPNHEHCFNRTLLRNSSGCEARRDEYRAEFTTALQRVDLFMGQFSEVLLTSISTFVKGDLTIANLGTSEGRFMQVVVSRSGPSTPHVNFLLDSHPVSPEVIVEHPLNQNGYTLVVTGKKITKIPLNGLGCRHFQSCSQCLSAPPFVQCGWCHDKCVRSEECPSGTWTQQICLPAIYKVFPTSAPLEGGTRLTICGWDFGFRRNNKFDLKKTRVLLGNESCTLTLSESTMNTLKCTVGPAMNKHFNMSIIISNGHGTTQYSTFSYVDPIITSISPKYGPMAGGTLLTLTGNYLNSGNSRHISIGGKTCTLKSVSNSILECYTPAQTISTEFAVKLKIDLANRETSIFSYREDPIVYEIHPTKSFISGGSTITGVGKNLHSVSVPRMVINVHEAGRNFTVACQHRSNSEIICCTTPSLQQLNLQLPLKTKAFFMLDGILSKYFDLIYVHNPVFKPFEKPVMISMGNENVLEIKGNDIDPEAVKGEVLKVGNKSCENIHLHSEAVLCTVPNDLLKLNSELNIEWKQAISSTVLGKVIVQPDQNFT

human cMET [3] = target: T1, human cMET; assay: ELISA, species cross-reactivity, antibody titrated on human cMET; x axis printed -8 to 2 with ug/mL (log10)
rat cMET = target: T3, rat cMET (rat, UniProt P97523 25-935, limits assumed); assay: ELISA on rat cMET, ratio against the parental antibody
T3 construct: also called rMET
T3 sequence (P97523 25-935 limits assumed): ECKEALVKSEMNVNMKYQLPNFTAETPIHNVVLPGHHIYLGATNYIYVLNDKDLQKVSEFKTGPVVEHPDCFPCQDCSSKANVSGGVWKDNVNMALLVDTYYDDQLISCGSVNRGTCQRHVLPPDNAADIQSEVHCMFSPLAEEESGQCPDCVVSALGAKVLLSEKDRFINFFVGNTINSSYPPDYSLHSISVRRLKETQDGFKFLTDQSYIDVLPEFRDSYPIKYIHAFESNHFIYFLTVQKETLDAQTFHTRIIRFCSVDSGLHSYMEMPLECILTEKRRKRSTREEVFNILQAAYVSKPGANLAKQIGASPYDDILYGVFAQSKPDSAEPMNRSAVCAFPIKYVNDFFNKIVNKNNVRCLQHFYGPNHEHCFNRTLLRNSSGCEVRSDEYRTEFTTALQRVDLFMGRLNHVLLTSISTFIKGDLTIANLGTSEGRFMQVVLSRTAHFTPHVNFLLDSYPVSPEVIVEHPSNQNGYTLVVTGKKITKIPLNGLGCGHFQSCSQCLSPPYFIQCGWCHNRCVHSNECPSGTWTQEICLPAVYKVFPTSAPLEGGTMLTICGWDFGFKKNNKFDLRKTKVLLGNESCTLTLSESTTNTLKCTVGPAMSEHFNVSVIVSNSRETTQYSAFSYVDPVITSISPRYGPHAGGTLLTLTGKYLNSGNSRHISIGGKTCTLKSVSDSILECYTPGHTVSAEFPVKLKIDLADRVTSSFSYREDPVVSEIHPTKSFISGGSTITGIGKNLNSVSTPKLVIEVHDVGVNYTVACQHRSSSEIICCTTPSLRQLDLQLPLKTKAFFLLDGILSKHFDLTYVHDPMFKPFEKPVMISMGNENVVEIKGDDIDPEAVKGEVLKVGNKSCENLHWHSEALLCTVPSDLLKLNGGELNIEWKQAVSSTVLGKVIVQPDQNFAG

human cMET [4] = target: T1, human cMET; assay: ELISA on human cMET, ratio against the parental antibody
[5] = target: T4, Recombinant Human c-Met-10x His (human, UniProt P08581 25-932); assay: MET Binding ELISA on plate-bound human cMET, direct binding; the half-maximal value is printed as IC50
T4 construct: Made in-house
T4 sequence (P08581 other isoform, or with tags, fused parts or gaps limits assumed): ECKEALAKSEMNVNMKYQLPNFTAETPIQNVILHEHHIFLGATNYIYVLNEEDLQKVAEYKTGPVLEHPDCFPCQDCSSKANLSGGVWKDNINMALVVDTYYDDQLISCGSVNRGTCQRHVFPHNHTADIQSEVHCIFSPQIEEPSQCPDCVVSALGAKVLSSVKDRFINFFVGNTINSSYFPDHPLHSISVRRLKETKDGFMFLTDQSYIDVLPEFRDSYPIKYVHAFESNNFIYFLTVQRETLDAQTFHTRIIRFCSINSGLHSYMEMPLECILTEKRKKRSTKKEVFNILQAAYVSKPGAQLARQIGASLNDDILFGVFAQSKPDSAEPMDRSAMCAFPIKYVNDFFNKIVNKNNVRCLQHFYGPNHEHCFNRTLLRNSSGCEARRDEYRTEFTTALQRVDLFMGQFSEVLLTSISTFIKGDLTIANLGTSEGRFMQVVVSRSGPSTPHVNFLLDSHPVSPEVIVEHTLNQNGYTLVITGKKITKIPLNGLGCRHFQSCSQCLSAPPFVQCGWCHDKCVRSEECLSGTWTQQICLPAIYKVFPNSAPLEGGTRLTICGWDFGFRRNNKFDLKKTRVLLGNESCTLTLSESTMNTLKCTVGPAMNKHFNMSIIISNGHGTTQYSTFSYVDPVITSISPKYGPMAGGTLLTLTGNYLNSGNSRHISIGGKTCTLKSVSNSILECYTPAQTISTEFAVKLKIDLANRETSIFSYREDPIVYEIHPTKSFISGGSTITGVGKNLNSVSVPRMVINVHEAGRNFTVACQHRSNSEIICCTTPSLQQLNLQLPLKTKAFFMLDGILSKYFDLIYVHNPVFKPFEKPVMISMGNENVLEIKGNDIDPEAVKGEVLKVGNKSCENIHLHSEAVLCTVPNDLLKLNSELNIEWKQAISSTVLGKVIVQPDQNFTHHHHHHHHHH
Description: Relative binding strength is indicated by luminescence (y-axis).

Molecule | ELISA rMET vs parental (rat cMET) | ELISA hMET vs parental (human cMET [4]) | also measured
5D5 (agonist Met-mAb antibody, agonist positive control) |  |  | Kd (human cMET [1]): 0.85 nM
B1 |  |  | EC50 (read off the curve) [2]: ~0.2 µg/mL; Kd (human cMET [1]): 0.18 nM; EC50 (read off the curve) (human cMET [3]): ~0.2 µg/mL
B2 |  |  | EC50 (read off the curve) [2]: ~0.2 µg/mL; EC50 (read off the curve) (human cMET [3]): ~0.2 µg/mL
B3 |  |  | EC50 (read off the curve) [2]: ~0.2 µg/mL; EC50 (read off the curve) (human cMET [3]): ~0.2 µg/mL
B4 | 0.9 | 0.7 | 
B5 |  |  | IC50 [5]: 0.052 µg/mL
B6 |  |  | EC50 (read off the curve) [2]: ~0.2 µg/mL; EC50 (read off the curve) (human cMET [3]): ~0.2 µg/mL
B7 |  |  | IC50 [5]: 0.058 µg/mL
B8 |  |  | IC50 [5]: 0.042 µg/mL
B9 |  |  | IC50 [5]: 0.103 µg/mL
B10 | 1.2 | 1.7 | 
B11 |  |  | IC50 [5]: 0.036 µg/mL
B12 | 0.5 | 1 | 
B13 | 2.7 | 1.3 | 
B14 | 1.4 | 1.7 | 
B15 | 2 | 1 | 
B16 | 3.8 | 1.8 | 
B17 | 2.3 | 1.7 | 
B18 | 1 | 1.1 | 
